This note sets out measurements from patent US20080085280A1.

Test [1] addresses wild-type human FcαRI (human) (UniProt P24071). Description: cell-based or functional assay.
For test [2], the target named is FcαRIR209L/γ chimeric receptor (human) (UniProt P24071). Put plainly: cell-based or functional assay.

As to “anti-FcαRI Fab A77 (Fab fragment of anti-FcαRI mAb, IgG1κ, clone A77)”, in test [1], the Fab concentration giving maximal inhibition of degranulation lay within 1 to 10 µg/mL; the inhibition of FcεRI-induced degranulation, 10 µg/ml Fab was > 50%; the inhibition of IgE-mediated degranulation (β-hexosaminidase release), 10 µg/ml Fab was 74%; the inhibition of IgE-mediated degranulation against irrelevant control Fab is 72%. In addition, the inhibition of IgG-mediated phagocytosis of E. coli by human blood monocytes in test [1] was > 80%. The same substance gave an inhibition of IgE-mediated degranulation against irrelevant control Fab in test [2] of 91%.
